Test results as given in paper PMC11063897, “Structural analysis of the SAM domain of the Arabidopsis mitochondrial tRNA import receptor”.

Key:
Assay in all cases: EMSA; 160 uM protein, 120 nM RNA; 15 mM Tris-HCl pH 7.0, 150 mM NaCl, 10% glycerol, 2 U/ul RNase inhibitor, 22 C, 15 min; 6% native TBE PAGE in 0.5x TBE
Conditions in all cases: protein: recombinant; tags: N-terminal His6, thrombin site; label: 5'-6-FAM
Tric1 SAM domain WT = biological target: T1, Tric1 SAM domain WT (Arabidopsis thaliana, UniProt Q9SCK3)
T1 sequence: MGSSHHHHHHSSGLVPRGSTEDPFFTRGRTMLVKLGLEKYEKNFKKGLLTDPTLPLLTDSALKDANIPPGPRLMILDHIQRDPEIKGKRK

[1] = biological target: T2, Tric1 SAM domain Asp235Ala:Gly241Glu (Arabidopsis thaliana, UniProt Q9SCK3, D235A;G241E)
T2 sequence: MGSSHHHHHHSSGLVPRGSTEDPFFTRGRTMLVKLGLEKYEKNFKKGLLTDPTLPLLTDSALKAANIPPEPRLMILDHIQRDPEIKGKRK

[2] = biological target: T3, Tric1 SAM domain Asp235Ala (Arabidopsis thaliana, UniProt Q9SCK3, D235A)
T3 sequence: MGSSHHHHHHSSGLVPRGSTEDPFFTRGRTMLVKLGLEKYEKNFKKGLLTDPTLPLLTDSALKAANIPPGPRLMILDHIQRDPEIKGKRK

[3] = biological target: T4, Tric1 SAM domain Gly241Glu (Arabidopsis thaliana, UniProt Q9SCK3, G241E)
T4 sequence: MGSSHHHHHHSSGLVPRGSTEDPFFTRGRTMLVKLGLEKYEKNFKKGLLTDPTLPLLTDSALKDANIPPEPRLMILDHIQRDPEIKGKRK

Does UCGCUUUGCAUGCGA (structured_RNA) [tRNAala T-arm] bind (Tric1 SAM domain WT)?
Result: binds

Does UCGCUUUGCAUGCGA (structured_RNA) [tRNAala T-arm] bind [1]?
Result: no binding

Does UCGCUUUGCAUGCGA (structured_RNA) [tRNAala T-arm] bind [2]?
Result: no binding

Does UCGCUUUGCAUGCGA (structured_RNA) [tRNAala T-arm] bind [3]?
Result: no binding
